Experimental data as given in patent US20240252641A1 (TCR2 THERAPEUTICS, published 2024).
Where a chain is given by its changes, count along the chain named.

Key:
[1] = biological target: T1, CD70 on cells (CHO-CD70, JVM-3, U266, Raji, THP-1, T cells) (human, UniProt P32970 1-193); experiment: binding to CD70-expressing CHO cells with and without CD27-Fc
T1 construct: whole, on cells; also called cell-surface CD70
T1 sequence (looked up): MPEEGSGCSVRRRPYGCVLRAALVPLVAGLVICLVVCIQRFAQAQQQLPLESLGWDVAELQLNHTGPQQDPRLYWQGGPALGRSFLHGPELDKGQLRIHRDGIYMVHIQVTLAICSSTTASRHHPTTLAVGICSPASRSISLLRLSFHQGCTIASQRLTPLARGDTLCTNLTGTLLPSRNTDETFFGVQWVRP
Outline: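 Anti-CD70 antibodies and CD27-Fc were applied to CHO cells with CD70 attached to the cell surface, in four set-ups. Each was applied alone; antibody was premixed with CD27-Fc; or cells were first coated with CD27-Fc or with antibody, washed, and then given the mixture. The binding signal was then measured in each set-up.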

[2] = biological target: T2, human CD70, recombinant, N-terminally biotinylated (residues 39-193) (human, UniProt P32970 39-193, N-terminal biotin); experiment: BLI, biotinylated CD70 on streptavidin sensors, 400 nM analyte
T2 construct: range 39-193; the same entry is used there; also called biotinylated human CD70; CD70 biotin
T2 sequence (looked up): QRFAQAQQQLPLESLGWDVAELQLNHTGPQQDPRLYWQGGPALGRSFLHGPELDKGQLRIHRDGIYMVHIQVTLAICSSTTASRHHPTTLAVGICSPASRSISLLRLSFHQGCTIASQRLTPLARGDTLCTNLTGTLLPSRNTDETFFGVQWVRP
Method: Bio-layer interferometry was used to measure the binding affinity of CD70 to CD70-targeted antibodies 41D12, R3P3H12, R3P5A1, R3aP3E8, and R3aP9D10, and human CD27 fused to human Fc domain (CD27-Fc; Acro Biosystems cat. CD7-h5254). […] Following CD70 immobilization, biosensors were immersed in Octet Buffer to remove unbound, biotinylated CD70 and to establish a flat baseline sensor signal. CD70-loaded Biosensors were then transferred to Octet buffer containing 400 nM of CD27-Fc or αCD70 antibody and association was monitored for 5 minutes at 30° C. whilst agitating at 1,000 RPM. An scFv fragment derived from humanized llama αCD70 antibody 41D12 and fused to human Fc (41D12-Fc) served as a positive control for CD70 binding and an αLysozyme single-domain camelid antibody (clone D2-L19) was used as a negative control. CD27-Fc or αCD70 antibody dissociation was initiated by transferring sensors to Octet buffer and monitored for 5 minutes. Data were analyzed using ForteBio Data Analysis Suite 9.0. The observed association (kₒₙ) and dissociation (koff) rates for the binding of single-domain antibodies to CD70 were determined using a 1:1 curve fitting model to obtain, in all cases, R²≥0.95. Values of the equilibrium dissociation constant for binding to CD70, KD, were determined from the ratio of koff and kₒₙ.

[3] = biological target: T1, CD70 on cells (CHO-CD70, JVM-3, U266, …); experiment: on Raji cells
[4] = biological target: T1, CD70 on cells (CHO-CD70, JVM-3, U266, …); experiment: on U266 cells
[5] = biological target: T1, CD70 on cells (CHO-CD70, JVM-3, U266, …); experiment: on JVM-3 cells
[6] = biological target: T3, CD70 (UniProt P32970 39-193, limits assumed); experiment: Octet (BLI); hybridoma mAb, CD70 at 100 nM
T3 construct: also called CD70 (100 nM)
T3 sequence (looked up): T2 sequence (looked up)

[7] = biological target: T3, CD70; experiment: Octet (BLI); mAb binding to CD70 with CD27 (competitor CD27)

B1: R3P3H12 VHH (VHH)
VHH: QVQLQESGGGLVQTGGSLRLSCTASGSIFDIVRGSWYRQAPGNQRELVAIITSGGATNYADSVAGRFTISRDSAWKALYLQMNSLKPEDTAVYFCNMESVRYRNYWGQGTQVTVSS
notes: tested as VHH-His
[1]
  binding result: binds
[2]
  binding result: binds

B2: R2P14A12 VHH (VHH)
VHH: QVQLQESGGGLVQPGGSLRLSCVASGFTLDRYAVGWFRQAPGKELEGVSCISSSGDIIKYADSAKGRFTIARDNAKNTAYLQMNSLKPEDTAVYYCTAADPKDDCSVPGYYGLNYWGKGTQVTVSS
notes: tested as VHH-His
[1]
  binding result: binds

B3: R3P15F6 VHH (VHH)
VHH: QVQLQESGGGLVQPGGSLRLSCVASGFTLDKYAIGWFRQAPGKELEGVSCITSSSGVVKYADSVKGRFIISRDNTNNRAFLQMSSLKPEDTAVYYCAAAGPPDDCSVPGYYGLNYWGKGTQVTVSS
[1]
  binding result: binds

B4: R3aP4D6 VHH (VHH)
VHH: QVQLQESGGGLVQAGGSLRLSCAASKSIIRDNVMAWHRQAPGKQRELVAIINTGGSANVDDSVKGRFTISRDNAKNMVYLQMNNLKPEDTAVYYCNVYYRDLWGQGTQVTVSS
[1]
  binding result: binds

B5: 4G7 (antibody, V domains shown)
VH: QVQLVESGGGVVQPGRSLRLSCAASGFTFSSYGLHWVRQAPGKGLDWVAVIWYDGSNKYYVDSVKGRFTISRDNSMNTLFLQMNSLRAEDTAVYYCARDEAAAAGAFDIWGQGTMVTVSS
VL: DIQLTQSPSFLSASVGDRVTITCRASQGISSYLAWYQQKPGKAPKLLIYAASTLQSGVPSRFSGSGSGTEFTLTISSLQPEDFATYYCQQLNYYSITFGQGTRLEIK
notes: alloy mouse hybridoma antibody; also called 4G7E8
[3]
  cell binding: 103000
[4]
  cell binding: 310000
[5]
  cell binding: 322000

B6: 15F8 (antibody, V domains shown)
VH: EVQLVESGGGVVRPGGSLRLSCAASGFTFDDYGVSWVRQAPGRGLEWVSGINWNGGSTAYADSVKGRFTISRDSAKNSLYLQMDSLRAEDTALYYCAREEGSYYVWYFDIWGRGTLVTVSS
VL: DIQMTQSPSSLSASVGDRVTITCRPSQSISNYLNWYQQKPGKAPKVLIYASFILQSGVPSRFGGSGSGTDFTLTISSLQPEDFATYYCQQSYSNPFTFGPGTKVDIK
notes: alloy mouse hybridoma antibody; also called 15F8D8; 15F8D9
[3]
  cell binding: 85100
[4]
  cell binding: 213000
[5]
  cell binding: 234000

B7: 1E3 (antibody, V domains shown)
VH: QLQLQESGPGLVKPSETLSLTCTVSGASITSTSYYWNWIRQPPGKGLEWIGRISYSGSTYYNPSLKSRVTISVDTSKNQFSLKLSSVTATDTAVYYCARQIRYNWNPDTFDIWGQGTMVTVSS
VL: EIVMTQSPATLSVSPGERATLSCRASQSLNSNLAWYQQKPAQAPRLLIYGASTRATGIPARFSGSGSGTEFTLTISSLQSEDFAVYYCQQYDNWPLTFGGGTKVEIK
notes: alloy mouse hybridoma antibody; also called 1E3D9
[3]
  cell binding: 38800
[4]
  cell binding: 106000
[5]
  cell binding: 121000

B8: 2F1 (antibody, V domains shown)
VH: EVQLVESGGVVVQPGGSLRLSCAASGFTFDDYTMHWVRQAPGKGLEWVSLVSWDGGSTYYADSVKGRFTTSRDNSKKFLYLQMNRLRTEDTALYFCAIDRAYRPYYYYHMDVWGKGTTVTVSS
VL: not shown
notes: alloy mouse hybridoma antibody; also called 2F1F7
[3]
  cell binding: 12100
[4]
  cell binding: 30600
[5]
  cell binding: 31600

B9: 9B2 (antibody, V domains shown)
VH: QLQVVESGGGLMQPGGSLRLSCAASGFTFSGSAMSWVRQAPGKGLEWVSSIYSHSMYTYYADSVKSRFTISTDNAKNTLYLQMNSLKPDDTAVYYCAASSDYEGLFVSWGQGTQVTVSS
VL: QAVLTQPPSLSASPGSSVRLTCTLNSANSVGSYDISWYQQKAGSPPRYLLYYYSDSLSHQGSGVPSRFSGSTDASANAGLLLISGLQPEDEADYYCSAYNRGSHVFGGGTKLTVL
[3]
  cell binding: 7310
[4]
  cell binding: 8040
[5]
  cell binding: 8940

B10: 13G6 (antibody, V domains shown)
VH: QVQLVESGGGVVQPGKSLRLSCAASGFTFSNYGIHWVRQAPGKGLEWVAVIWYDGSYKYYADSVKGRFTISRDNSKNTLYLQMNSLRAEDTALYYCARDTVDTYGSFDYWGQGTLVTVSS
VL: B5 VL with C23G, K45N, L91H, Y93R, S95P
notes: IgG in hybridoma supernatant; also called 13G6E8
[6]
  Kd: 3.42 pM
  Response: 0.409
  koff: 3.3e-07 s⁻¹
  kon: 96400 M⁻¹ s⁻¹
[7]
  CD27:CD70 Interaction Neutralization of mAb Binding: 0.0585

B11: 9A11 (9A11E8) (antibody, V domains shown)
VH: QVQLVESGGGVVQPGRSLRLSCAASGFTFSNYGMYWVRQAPGKGLEWVAVIWYDGSKKYYGDSVKGRFTISRDNSKNTLYLQMNSLRAEDTAVYYCARDEDTVMASFDYWGQGTLVTVSS
VL: B5 VL with G28D, S31I, K45Q, Y87S, Y93S, S95P, Q100G, R103K, L104V
notes: IgG in hybridoma supernatant
[6]
  Kd: 2.46 pM
  Response: 0.429
  koff: 3.36e-07 s⁻¹
  kon: 137000 M⁻¹ s⁻¹
[7]
  CD27:CD70 Interaction Neutralization of mAb Binding: 0.0777

B12: 15F8 (15F8D8) (antibody, V domains shown)
VH: B6 VH
VL: B6 VL
notes: IgG in hybridoma supernatant; also called 15F8D9
[6]
  Kd: 4.81 pM
  Response: 0.382
  koff: 3.36e-07 s⁻¹
  kon: 69800 M⁻¹ s⁻¹
[7]
  CD27:CD70 Interaction Neutralization of mAb Binding: 0.0349

B13: 9A1 (9A1H6) (antibody, V domains shown)
VH: QVQLVQSGAEVKKPGASVKVSCKASGYSFTGYYMHWVRQAPGQGLEWMGWINPKSGGTSYAQQFQGRVTMTRDTSMSTVYMELTRLRADDTAVYYCARLYYSGWYGDYWGQGTLVTVSS
VL: DIQMTQSPSSLSASVGDRVTITCQASQDINNYLNWYQQKPGKVPNLLIYDASNLETGVPSRFSGSGSGTDFTFTISSLQPEDIATYYCQQYNNPPITFGQGTRLEIK
notes: IgG in hybridoma supernatant
[6]
  Kd: 6.03 pM
  Response: 0.434
  koff: 5.28e-07 s⁻¹
  kon: 87500 M⁻¹ s⁻¹
[7]
  CD27:CD70 Interaction Neutralization of mAb Binding: 0.0553

B14: 1E3 (1E3D9) (antibody, V domains shown)
VH: B7 VH
VL: B7 VL
notes: IgG in hybridoma supernatant
[6]
  Kd: 255 pM
  Response: 0.506
  koff: 3.88e-05 s⁻¹
  kon: 152000 M⁻¹ s⁻¹
[7]
  CD27:CD70 Interaction Neutralization of mAb Binding: 0.102

B15: 4G7 (4G7E8) (antibody, V domains shown)
VH: B5 VH
VL: B5 VL
notes: IgG in hybridoma supernatant; The variable domains exist only inside scFv entries 1213/1214
[6]
  Kd: 1280 pM
  Response: 0.357
  koff: 0.000167 s⁻¹
  kon: 130000 M⁻¹ s⁻¹
[7]
  CD27:CD70 Interaction Neutralization of mAb Binding: 0.0429

B16: 2F1 (2F1F7) (antibody, V domains shown)
VH: B8 VH
VL: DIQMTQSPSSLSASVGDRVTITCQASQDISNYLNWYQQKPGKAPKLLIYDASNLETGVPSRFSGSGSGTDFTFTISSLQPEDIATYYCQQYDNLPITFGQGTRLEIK
notes: IgG in hybridoma supernatant; The variable domains exist only inside scFv entries 1215/1216
[6]
  Kd: 6600 pM
  Response: 0.698
  koff: 0.000555 s⁻¹
  kon: 84100 M⁻¹ s⁻¹
[7]
  CD27:CD70 Interaction Neutralization of mAb Binding: 0.0275
